Experiments:
Test in all cases: SPR
[1] = biological target: human FcγRI receptor protein (R&D Systems) (human) (UniProt P12314)
[2] = biological target: human FcγRIIb receptor protein (R&D Systems) (human) (UniProt P31994)
[3] = biological target: human FcγRIIa (131H), His- and GST-tagged (human) (UniProt P12318)
[4] = biological target: human FcγRIIa (131R), His- and GST-tagged (human) (UniProt P12318)
mFcγRIV = biological target: T1, mFcγRIV
T1 sequence: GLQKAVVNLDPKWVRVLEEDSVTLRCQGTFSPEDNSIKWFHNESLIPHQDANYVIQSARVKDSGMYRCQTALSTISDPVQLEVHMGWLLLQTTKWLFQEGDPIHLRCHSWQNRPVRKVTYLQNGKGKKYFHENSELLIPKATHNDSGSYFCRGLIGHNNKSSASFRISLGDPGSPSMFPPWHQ

[5] = biological target: cynoFcγRIIb (Macaca fascicularis)
mFcγRIIb (Mus musculus) = mFcγRIIb (Mus musculus) (UniProt P08101)
Sequence of mFcγRIIb (Mus musculus) (P08101 30-210): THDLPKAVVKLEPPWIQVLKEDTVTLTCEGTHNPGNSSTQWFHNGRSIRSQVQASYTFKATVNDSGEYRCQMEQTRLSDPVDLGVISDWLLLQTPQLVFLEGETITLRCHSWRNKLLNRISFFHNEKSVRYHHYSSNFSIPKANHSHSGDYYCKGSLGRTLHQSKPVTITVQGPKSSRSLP

Sequence of human FcγRI receptor protein (R&D Systems) (human) (P12314 16-288 limits assumed): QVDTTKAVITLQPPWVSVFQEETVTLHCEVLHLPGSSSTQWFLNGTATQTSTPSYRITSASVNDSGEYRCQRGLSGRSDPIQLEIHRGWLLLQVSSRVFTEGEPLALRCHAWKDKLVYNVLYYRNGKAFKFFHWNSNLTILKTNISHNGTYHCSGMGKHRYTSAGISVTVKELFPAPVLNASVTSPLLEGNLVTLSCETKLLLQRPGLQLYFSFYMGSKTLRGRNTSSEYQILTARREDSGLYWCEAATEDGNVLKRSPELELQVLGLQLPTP
Sequence of human FcγRIIb receptor protein (R&D Systems) (human) (P31994 46-217 limits assumed): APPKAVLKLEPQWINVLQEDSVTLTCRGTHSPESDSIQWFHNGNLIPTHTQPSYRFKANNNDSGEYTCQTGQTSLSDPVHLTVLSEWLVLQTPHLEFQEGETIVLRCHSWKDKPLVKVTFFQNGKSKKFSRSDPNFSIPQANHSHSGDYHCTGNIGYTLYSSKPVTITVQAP
Sequence of human FcγRIIa (131H), His- and GST-tagged (human) (P12318 34-217): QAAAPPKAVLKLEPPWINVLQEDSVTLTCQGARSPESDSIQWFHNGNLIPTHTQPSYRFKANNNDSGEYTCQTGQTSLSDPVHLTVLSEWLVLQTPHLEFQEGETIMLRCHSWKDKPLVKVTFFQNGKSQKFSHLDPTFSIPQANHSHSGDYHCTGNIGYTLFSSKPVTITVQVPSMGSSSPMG
Sequence of human FcγRIIa (131R), His- and GST-tagged (human) (P12318 34-217 H167R): as the sequence (P12318 34-217) above, with H134R counted along it

anti-CD19 antibody IgG1/2 ELLGG S267E/L328F
Fold vs WT IgG1 [1]: 2.35 fold | Kd [1]: 0.14 nM | Fold vs WT IgG1 [2]: 221 fold | Kd [2]: 6.63 nM | Fold vs WT IgG1 [3]: 0.993 fold | Kd [3]: 651 nM | Fold vs WT IgG1 [4]: 269 fold | Kd [4]: 3.19 nM

V266M (antibody)
Fold vs WT IgG1 (off-rate) (mFcγRIV): 1.23 fold

S267D/A327D (antibody)
Fold vs WT IgG1 (off-rate) [5]: 0 fold | Fold vs WT IgG1 (off-rate) (mFcγRIIb (Mus musculus)): 0 fold

S267E/L328Y (antibody)
Fold vs WT IgG1 (Kd) (mFcγRIV): 0.026 fold

From patent US20130315910A1
